Laboratory results: US20120034215A1 (Daiichi Sankyo, published 2012)
Positions count from the first letter of the chain named.

T1: cynomolgus monkey MST1R with N-terminal Flag tag, expressed on HEK293T cells (cynomolgus monkey, UniProt Q04912 27-1400 (human entry))
T1 construct: ORF cloned excluding the signal peptide region; also called cynomolgus MST1R; not shown: N-terminal Flag tag from vector pFLAG-myc-CMV-19 (Sigma)
T1 chain: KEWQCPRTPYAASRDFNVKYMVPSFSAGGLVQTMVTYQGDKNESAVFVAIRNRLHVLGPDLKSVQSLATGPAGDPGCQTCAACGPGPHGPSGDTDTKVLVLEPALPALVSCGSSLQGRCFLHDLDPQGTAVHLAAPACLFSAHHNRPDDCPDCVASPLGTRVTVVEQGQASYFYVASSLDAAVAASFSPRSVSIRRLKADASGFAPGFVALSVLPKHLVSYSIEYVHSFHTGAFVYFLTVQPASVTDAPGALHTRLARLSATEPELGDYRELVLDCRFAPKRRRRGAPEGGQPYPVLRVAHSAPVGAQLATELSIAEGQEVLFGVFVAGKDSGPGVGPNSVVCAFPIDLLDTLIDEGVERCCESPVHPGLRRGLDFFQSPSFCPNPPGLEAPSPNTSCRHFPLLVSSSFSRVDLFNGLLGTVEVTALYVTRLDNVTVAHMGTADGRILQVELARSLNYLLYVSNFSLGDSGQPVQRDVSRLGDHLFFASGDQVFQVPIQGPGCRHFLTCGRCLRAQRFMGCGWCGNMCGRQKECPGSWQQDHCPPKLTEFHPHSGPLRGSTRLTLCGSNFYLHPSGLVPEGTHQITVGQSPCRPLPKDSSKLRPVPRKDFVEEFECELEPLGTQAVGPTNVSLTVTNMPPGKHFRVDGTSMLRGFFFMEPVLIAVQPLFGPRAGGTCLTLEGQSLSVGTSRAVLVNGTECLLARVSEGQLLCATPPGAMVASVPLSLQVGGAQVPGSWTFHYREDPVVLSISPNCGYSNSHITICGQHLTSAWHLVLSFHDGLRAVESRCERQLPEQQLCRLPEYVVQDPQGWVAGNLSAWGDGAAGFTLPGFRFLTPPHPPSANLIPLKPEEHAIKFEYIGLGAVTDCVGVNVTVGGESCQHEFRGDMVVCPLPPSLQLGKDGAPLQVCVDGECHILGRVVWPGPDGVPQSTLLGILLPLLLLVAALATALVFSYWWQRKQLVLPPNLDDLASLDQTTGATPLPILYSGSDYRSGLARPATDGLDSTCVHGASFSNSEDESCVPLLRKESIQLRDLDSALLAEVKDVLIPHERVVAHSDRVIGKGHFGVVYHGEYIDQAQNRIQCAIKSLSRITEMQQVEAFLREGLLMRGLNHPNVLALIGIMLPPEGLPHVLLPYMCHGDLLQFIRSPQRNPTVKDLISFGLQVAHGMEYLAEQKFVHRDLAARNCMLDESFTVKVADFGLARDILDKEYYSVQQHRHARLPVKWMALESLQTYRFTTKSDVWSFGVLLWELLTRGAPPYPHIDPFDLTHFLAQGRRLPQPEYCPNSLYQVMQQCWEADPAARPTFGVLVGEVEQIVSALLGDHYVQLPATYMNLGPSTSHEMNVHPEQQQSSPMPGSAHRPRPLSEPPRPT

B1: MOR07923 (human IgG1) (antibody, V domains shown)
VH: QVQLVESGGGLVQPGGSLRLSCAASGFTFNSYSMSWVRQAPGKGLEWVSYISSRSSTTYYADSVKGRFTISRDNSKNTLYLQMNSLRAEDTAVYYCARGYFHGMDYWGQGTLVTVSS
VL: DIVLTQSPATLSLSPGERATLSCRASQSVSFDYLGWYQQKPGQAPRLLIYGASNRATGVPARFSGSGSGTDFTLTISSLEPEDFATYYCFQYLIVPFTFGQGTKVEIKR
B2: MOR07925 (human IgG1) (antibody, V domains shown)
VH: B1 VH
VL: B1 VL with F90L, L93F, I94N, V95P, F97H
B3: MOR07926 (human IgG1) (antibody, V domains shown)
VH: B1 VH
VL: B1 VL with Y92A, V95M
B4: MOR07924 (human IgG1) (antibody, V domains shown)
VH: B1 VH
VL: B1 VL with F90Q, L93N, V95N
B5: MOR07692 (human IgG1) (antibody, V domains shown)
VH: B1 VH
VL: B1 VL with F90Q, L93Y, I94N, V95M, F97Y

Biological target: T1, cynomolgus monkey MST1R with N-terminal …
Experiment: flow cytometry on transfected HEK293T cells, 2 ug/ml IgG1
Method: Cells (5×10⁵ cells/well) were incubated with Fab or IgG antibodies at the indicated concentrations in 50 μl FACS buffer (PBS, 5% FCS) for 60 min at 4° C. in round bottom 96-well culture plates (Corning). Cells were washed twice and then incubated with Fluorescein Isothiocyanate (FITC) conjugated detection antibody for 30 min at 4° C. Cells were washed again, resuspended in 0.3 ml FACS buffer and then analyzed by flow cytometry in a Cytomics FC500 (Beckman Coulter, Inc.). Data were analysed via FlowJo software (Tomy digital biology Co., Ltd.). Polyclonal goat anti-hMSP R IgG (R&D systems) or anti-FLAG M2 antibody (Sigma) was used as a positive control and MOR03207 (anti-lysozyme) antibody was used as a negative control.
FACS-analysis of MST1R ortholog-expressing cells: Human MST1R (cDNA nucleotide sequence is shown as GenBank Accession No: NM_{—}002447.2), cynomolgus monkey MST1R and mouse MST1R (cDNA nucleotide sequence is shown as GeneBank Accession No: NM_{—}009074.1) expression vector containing N-terminal Flag tag (pFLAG-myc-CMV-19, Sigma) were constructed. cDNA encoding cynomolgus monkey MST1R was amplified by PCR using cynomolgus monkey stomach cDNA as a template with forward and reverse primers having nucleotide sequences of SEQ ID NO: 34 and 35, respectively. By sequencing analysis of PCR product, the cynomolgus MST1R ORF nucleotide sequence was identified as shown in SEQ ID NO: 36. The corresponding amino acid sequence was shown in SEQ ID NO: 37. Then human, cynomolgus monkey and mouse MST1R ORF cDNA, excluding signal peptide regions, were amplified using respective forward and reverse primers having nucleotide sequences of SEQ ID NO: 38 and 39 (human), 40 and 41 (cynomolgus monkey), and 42 and 43 (mouse) with appropriate cloning sites and then cloned into pFLAG-myc-CMV-19. An amplified human MST1R fragment encodes amino acids corresponding to GenBank Accession No: NP_{—}002438.2 (SEQ ID NO: 45). A Mouse MST1R fragment encodes amino acids corresponding to GenBank Accession No: NP_{—}033100.1 (SEQ ID NO: 47) except for those amino acid differences at positions: 688 (Leu to Pro), 713 (Ile to Val), 714 (Ala to Gly) and 719 (Ala to Val). These expression vectors were transfected into HEK293T cells. For FACS-analysis, cells were incubated with 2 μg/ml primary antibodies followed by incubation with FITC-labeled secondary antibody as described above.

binding result | Binder
binds | B1
binds | B2
binds | B3
binds | B4
binds | B5
